From paper PMC2782394

T1: ROS3 (Arabidopsis thaliana, UniProt Q9FGT1 1-748)
T1 sequence: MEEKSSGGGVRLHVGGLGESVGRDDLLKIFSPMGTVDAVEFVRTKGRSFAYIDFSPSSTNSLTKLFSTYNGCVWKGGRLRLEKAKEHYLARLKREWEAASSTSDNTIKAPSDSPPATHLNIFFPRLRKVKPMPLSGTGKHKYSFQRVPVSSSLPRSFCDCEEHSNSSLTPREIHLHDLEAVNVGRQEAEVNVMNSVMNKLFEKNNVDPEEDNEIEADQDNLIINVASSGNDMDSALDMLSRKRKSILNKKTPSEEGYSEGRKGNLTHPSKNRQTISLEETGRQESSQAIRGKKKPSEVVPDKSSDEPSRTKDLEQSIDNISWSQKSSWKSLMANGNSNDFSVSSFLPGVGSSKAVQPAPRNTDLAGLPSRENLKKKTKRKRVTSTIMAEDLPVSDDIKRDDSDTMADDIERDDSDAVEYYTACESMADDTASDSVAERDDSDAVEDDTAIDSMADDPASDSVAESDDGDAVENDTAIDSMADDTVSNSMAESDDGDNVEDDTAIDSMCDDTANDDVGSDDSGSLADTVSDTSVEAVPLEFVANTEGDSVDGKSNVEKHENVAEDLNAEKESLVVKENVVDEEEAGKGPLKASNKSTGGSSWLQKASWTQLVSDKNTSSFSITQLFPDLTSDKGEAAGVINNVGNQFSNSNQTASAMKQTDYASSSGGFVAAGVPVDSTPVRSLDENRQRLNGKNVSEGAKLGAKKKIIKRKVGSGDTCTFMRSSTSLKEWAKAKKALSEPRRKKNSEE


Target: T1, ROS3
Experiment: EMSA

| Binder | binding result |
| --- | --- |
| GGGAGUCCGGAGACGUCGGCGGGGG (ssRNA) [RNA (c) 25-nt] | binds |
| UCGGGAGGGAAGCGGAUGGGGGCCG (ssRNA) [RNA (d) 25-nt] | binds |
